Consider 41 substances from patent US10464978B2, “Peptides and combination of peptides for use in immunotherapy against ovarian cancer and other cancers” (immatics biotechnologies GmbH, priority 2015, dated 2019).

The first experiment has as its target HLA-A*02:01 (Homo sapiens, UniProt P04439, D140Y/D185E/D98H/E176V/E277Q/G131W/G231S/I119V/I121R/I166T/I218V/L300P/L318F/N151K/N90K/P208A/P217A/Q86G/Q94H/R138H/R169H/T345S). Put plainly: MHC binding assay: UV-ligand exchange with beta2m ELISA (peptide exchange yield). As to conditions: binding to HLA-A*02:01. In a few lines: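 Peptide-MHC complexes formed by UV-ligand exchange, a UV-cleavable peptide being replaced by the candidate peptide. Exchange products diluted 100-fold, captured on streptavidin-coated plates for 1h at 37° C, then detected with 2 ug/ml HRP anti-β2m (1h, 37° C) and TMB, absorbance 450 nm; value is exchange yield.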
Background: In an ELISA, binding on a coated surface is turned into a signal by an enzyme label.
On to “283 (ALYIGDGYVIHLA; listed as Homo sapiens) [compound 283]”, for which the “Peptide exchange (MHC class I binding score, peptide exchange yield)” value (from here on “Peptide exchange”) is reported as ““+++” (≥50 = +++)”. For the substance “357 (SMHDLVLQV; listed as Homo sapiens) [compound 357]”, the “Peptide exchange” value is ““+++” (≥50 = +++)”. Regarding “61 (FLQGYQLHL; listed as Homo sapiens) [compound 61]”, the “Peptide exchange” value is listed as ““++++” (≥75% = ++++)”.

With “449 (KLAEGLDIQL; listed as Homo sapiens) [compound 449]”, the “Peptide exchange” value is ““+++” (≥50 = +++)”.

With “175 (YLFENISQL; listed as Homo sapiens) [compound 175]”, the “Peptide exchange” value was ““+++” (≥50 = +++)”. Take “82 (FLSSVTYNL; listed as Homo sapiens) [compound 82]”: the “Peptide exchange” value is reported as ““+++” (≥50 = +++)”. The same measure, in the same setting: as for “599 (YLLNDASLISV; listed as Homo sapiens) [compound 599]”, the entry is ““+++” (≥50 = +++)”; as for “431 (SLVNVVPKL; listed as Homo sapiens) [compound 431]”, ““++” (≥20% = ++)”; as for “154 (ALDDGTPAL; listed as Homo sapiens) [compound 154]”, ““++” (≥20% = ++)”. For the substance “164 (ALLPQPKNLTV; listed as Homo sapiens) [compound 164]”, the “Peptide exchange” value was ““+++” (≥50 = +++)”.

Take “227 (ALMNTLLYL; listed as Homo sapiens) [compound 227]”: the “Peptide exchange” value is given as ““++” (≥20% = ++)”.

Consider “527 (FLLEPGNLEV; listed as Homo sapiens) [compound 527]”, for which the “Peptide exchange” value is reported as ““++++” (≥75% = ++++)”. The same measure, in the same setting: under “104 (STMEQNFLL; listed as Homo sapiens) [compound 104]” stands ““++++” (≥75% = ++++)”. As for “310 (FLVDTPLARA; listed as Homo sapiens) [compound 310]”, the “Peptide exchange” value was ““++++” (≥75% = ++++)”. Turning to “429 (GLVNDLARV; listed as Homo sapiens) [compound 429]”, the “Peptide exchange” value is ““++” (≥20% = ++)”.

With “603 (FLIEPEHVNTV; listed as Homo sapiens) [compound 603]”, the “Peptide exchange” value is ““++” (≥20% = ++)”. Regarding “9 (GAAKDLPGV; listed as Homo sapiens) [compound 9]”, the “Peptide exchange” value is ““++” (≥20% = ++)”. Regarding “554 (LLMPSSEDLLL; listed as Homo sapiens) [compound 554]”, the “Peptide exchange” value was ““+++” (≥50 = +++)”. For the substance “20 (RMIEYFIDV; listed as Homo sapiens) [compound 20]”, the “Peptide exchange” value was ““+++” (≥50 = +++)”.

Turning to “567 (SLLPLDDIVRV; listed as Homo sapiens) [compound 567]”, the “Peptide exchange” value was ““+++” (≥50 = +++)”. On the same count and under the same terms, under “253 (GLDAATATV; listed as Homo sapiens) [compound 253]” stands ““++” (≥20% = ++)”. For “363 (KVLDVSDLESV; listed as Homo sapiens) [compound 363]”, the “Peptide exchange” value was ““++” (≥20% = ++)”.

Take “409 (LLDAMNYHL; listed as Homo sapiens) [compound 409]”: the “Peptide exchange” value is ““++” (≥20% = ++)”. With “471 (YLYNNMIAKI; listed as Homo sapiens) [compound 471]”, the “Peptide exchange” value was ““+++” (≥50 = +++)”. As for “375 (SLTETIEGV; listed as Homo sapiens) [compound 375]”, the “Peptide exchange” value is on record as ““++” (≥20% = ++)”. For “113 (GLLPTPLFGV; listed as Homo sapiens) [compound 113]”, the “Peptide exchange” value is recorded as ““+++” (≥50 = +++)”.

Consider “254 (TLLAFIMEL; listed as Homo sapiens) [compound 254]”, for which the “Peptide exchange” value was ““+++” (≥50 = +++)”.

“245 (SMIDDLLGV; listed as Homo sapiens) [compound 245]”: the “Peptide exchange” value is reported as ““+++” (≥50 = +++)”. As to “106 (LLYDAVHIVSV; listed as Homo sapiens) [compound 106]”, the “Peptide exchange” value is ““+++” (≥50 = +++)”.

Take “179 (KVLNELYTV; listed as Homo sapiens) [compound 179]”: the “Peptide exchange” value is on record as ““+++” (≥50 = +++)”.

As to “151 (KILQQLVTL; listed as Homo sapiens) [compound 151]”, the “Peptide exchange” value is given as ““+++” (≥50 = +++)”. Consider “609 (ALWKQLLEL; listed as Homo sapiens) [compound 609]”, for which the “Peptide exchange” value is given as ““+++” (≥50 = +++)”.

With “546 (VMIAGKVAVV; listed as Homo sapiens) [compound 546]”, the “Peptide exchange” value is given as ““+++” (≥50 = +++)”. As to “135 (ALSEVDFQL; listed as Homo sapiens) [compound 135]”, the “Peptide exchange” value is on record as ““+++” (≥50 = +++)”. With “109 (IILSILEQA; listed as Homo sapiens) [compound 109]”, the “Peptide exchange” value is listed as ““++++” (≥75% = ++++)”. As for “510 (KLYSVVSQL; listed as Homo sapiens) [compound 510]”, the “Peptide exchange” value was ““++” (≥20% = ++)”.

For another experiment, the system named is CD8+ T cells. Put plainly: In vitro T-cell priming with aAPCs loaded with peptide/MHC and anti-CD28, pMHC multimer readout (in vitro immunogenicity). Format: cell-based, human. Particulars: HLA-A*02, healthy donors. The procedure: In an aspect, the peptides are pre-screened for immunogenicity before being included in the warehouse. By way of example, and not limitation, the immunogenicity of the peptides included in the warehouse is determined by a method comprising in vitro T-cell priming through repeated stimulations of CD8+ T cells from healthy donors with artificial antigen presenting cells loaded with peptide/MHC complexes and anti-CD28 antibody.
In order to obtain information regarding the immunogenicity of the TUMAPs of the present invention, the inventors performed investigations using an in vitro T-cell priming assay based on repeated stimulations of CD8+ T cells with artificial antigen presenting cells (aAPCs) loaded with peptide/MHC complexes and anti-CD28 antibody.
In order to perform in vitro stimulations by artificial antigen presenting cells loaded with peptide-MHC complex (pMHC) and anti-CD28 antibody, the inventors first isolated CD8+ T cells from fresh HLA-A*02 leukapheresis products via positive selection using CD8 microbeads (Miltenyi Biotec, Bergisch-Gladbach, Germany) of healthy donors obtained from the University clinics Mannheim, Germany, after informed consent.
PBMCs and isolated CD8+ lymphocytes were incubated in T-cell medium (TCM) until use consisting of RPMI-Glutamax (Invitrogen, Karlsruhe, Germany) supplemented with 10% heat inactivated human AB serum (PAN-Biotech, Aidenbach, Germany), 100 U/ml Penicillin/100 μg/ml Streptomycin (Cambrex, Cologne, Germany), 1 mM sodium pyruvate (CC Pro, Oberdorla, Germany), 20 μg/ml Gentamycin (Cambrex). 2.5 ng/ml IL-7 (PromoCell, Heidelberg, Germany) and 10 U/ml IL-2 (Novartis Pharma, Nürnberg, Germany) were also added to the TCM at this step.
Generation of pMHC/anti-CD28 coated beads, T-cell stimulations and readout was performed in a highly defined in vitro system using four different pMHC molecules per stimulation condition and 8 different pMHC molecules per readout condition.
The purified co-stimulatory mouse IgG2a anti human CD28 Ab 9.3 (Jung et al., 1987) was chemically biotinylated using Sulfo-N-hydroxysuccinimidobiotin as recommended by the manufacturer (Perbio, Bonn, Germany). Beads used were 5.6 μm diameter streptavidin coated polystyrene particles (Bangs Laboratories, Illinois, USA).
pMHC used for positive and negative control stimulations were A*0201/MLA-001 (peptide […] (SEQ ID NO. 664) from modified Melan-A/MART-1) and A*0201/DDX5-001 ([…] from DDX5, SEQ ID NO. 665), respectively.
800.000 beads/200 μl were coated in 96-well plates in the presence of 4×12.5 ng different biotin-pMHC, washed and 600 ng biotin anti-CD28 were added subsequently in a volume of 200 μl. Stimulations were initiated in 96-well plates by co-incubating […] CD8+ T cells with 2×10^5 washed coated beads in 200 μl TCM supplemented with 5 ng/ml IL-12 (PromoCell) for 3 days at 37° C. Half of the medium was then exchanged by fresh TCM supplemented with 80 U/ml IL-2 and incubating was continued for 4 days at 37° C. This stimulation cycle was performed for a total of three times. For the pMHC multimer readout using 8 different pMHC molecules per condition, a two-dimensional combinatorial coding approach was used as previously described (Andersen et al., 2012) with minor modifications encompassing coupling to 5 different fluorochromes. Finally, multimeric analyses were performed by staining the cells with Live/dead near IR dye (Invitrogen, Karlsruhe, Germany), CD8-FITC antibody clone SK1 (BD, Heidelberg, Germany) and fluorescent pMHC multimers. For analysis, a BD LSRII SORP cytometer equipped with appropriate lasers and filters was used. Peptide specific cells were calculated as percentage of total CD8+ cells. Evaluation of multimeric analysis was done using the FlowJo software (Tree Star, Oregon, USA). In vitro priming of specific multimer+ CD8+ lymphocytes was detected by comparing to negative control stimulations. […]
For “648 (LLWGNAIFL; listed as Homo sapiens) [compound 648]”, the “donors (percentage of positive donors)” value is given as “+++ (50%-69% = +++)” and the “wells (percentage of positive wells)” value was “++ (20%-49% = ++)”. Take “662 (KIQEILTQV; listed as Homo sapiens) [compound 662]”: the “donors (percentage of positive donors)” value is “+++ (50%-69% = +++)” and the “wells (percentage of positive wells)” value is given as “+ (<20% = +)”. For “663 (KIQEMQHFL; listed as Homo sapiens) [compound 663]”, the “donors (percentage of positive donors)” value is reported as “+++ (50%-69% = +++)” and the “wells (percentage of positive wells)” value is given as “+ (<20% = +)”. With “652 (TLWYRAPEV; listed as Homo sapiens) [compound 652]”, the “donors (percentage of positive donors)” value was “++++ (> = 70% = ++++)” and the “wells (percentage of positive wells)” value was “+++ (50%-69% = +++)”. For “283 (ALYIGDGYVIHLA; listed as Homo sapiens) [compound 283]”, the “donors (percentage of positive donors)” value was “+++ (50%-69% = +++)” and the “wells (percentage of positive wells)” value is on record as “+ (<20% = +)”. For “659 (ILFPDIIARA; listed as Homo sapiens) [compound 659]”, the “donors (percentage of positive donors)” value is on record as “+++ (50%-69% = +++)” and the “wells (percentage of positive wells)” value is on record as “+ (<20% = +)”.
